B1: THAP1; numbered along this chain (parent)
chain: MVQSCSAYGCKNRYDKDKPVSFHKFPLTRPSLCKEWEAAVRRKNFKPTKYSSICSEHFTPDCFKRECNNKLLKENAVPTIFLCTEPHDKKEDLLEPQEQLPPPPLPPPVSQVDAAIGLLMPPLQTPVNLSVFCDHNYTVEDTMHQRKRIHQLEQQVEKLRKKLKTAQQRCRRQERQLEKLKEVVHFQKEKDDVSERGYVILPNDYFEIVEVPA

Variants of: B1
Test: THAP1 transcriptional activity (GFP+/GFP- enrichment relative to wild-type constructs) (ratio to WT); higher = more THAP1 activity (PSMB5 reporter activation)
Conditions: with PSMB5 promoter-GFP reporter
Procedure: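 Deep mutational scan of human THAP1. Site-saturation single amino acid variant library (residues 2-213) was expressed by lentivirus at MOI ~0.3 in THAP1-knockout HEK-293T cells carrying an endogenous PSMB5 promoter-GFP knock-in reporter. Five days post-transduction, BFP+ cells were FACS-sorted into GFP dim and GFP bright populations and variants were counted by Illumina sequencing. Activity is the GFP-bright/GFP-dim read fold change, mean of 2 replicates, divided by the mean fold change of wild-type (synonymous) constructs in the same screen pool; WT = 1.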

| Variant | THAP1 transcriptional activity |
| --- | --- |
| D17G | 0.387 |
| T28P | 0.103 |
| Q97W | 0.632 |
| Q97C | 1.33 |
| Q111Y | 0.232 |
| Q111R | 0.543 |
| Q111F | 0.585 |
| I53F | 0.0519 |
| I53V | 0.447 |
| Q99L | 1.11 |
| F45K | 0.0558 |
| F45Y | 0.154 |
| Y198F | 0.947 |
| E140F | 1.16 |
| P107R | 0.608 |
| Y205W | 2.45 |
| Y205I | 1.07 |
| Y205R | 0.621 |
| K73V | 0.644 |
| N136V | 0.0965 |
| N136E | 0.14 |
| V199N | 0.42 |
| V199L | 0.908 |
| V199E | 0.701 |

| Variant | THAP1 transcriptional activity |
| --- | --- |
| P102R | 1.43 |
| F58P | 0.0346 |
| F58Y | 0.153 |
| F58I | 0.0956 |
| E95H | 1.29 |
| E95L | 0.979 |
| E95V | 0.815 |
| A38D | 1 |
| A38H | 0.797 |
| T48H | 0.102 |
| T48P | 0.174 |
| N128Q | 0.507 |
| N128H | 0.446 |
| E37G | 0.195 |
| L177W | 0.263 |
| E91A | 0.844 |
| E91P | 0.793 |
| E91K | 2.46 |
| C170W | 0.208 |
| C62R | 0.181 |
| C62N | 0.487 |
| D113G | 0.816 |
| D113V | 0.277 |
| R160D | 0.216 |

| Variant | THAP1 transcriptional activity |
| --- | --- |
| R160I | 0.228 |
| R160L | 0.205 |
| V112E | 1.25 |
| V112M | 1.24 |
| Q3M | 0.486 |
| Q3P | 0.186 |
| H135S | 0.182 |
| V183P | 0.678 |
| L119H | 0.929 |
| L119V | 0.5 |
| L119S | 0.92 |
| A39Q | 0.502 |
| R196E | 1.34 |
| R196W | 0.521 |
| L123C | 0.584 |
| N12A | 0.107 |
| N12C | 0.0986 |
| N12W | 0.121 |
| S4K | 0.127 |
| N68P | 0.161 |
| S52V | 1.14 |
| S52C | 1.57 |
| S52W | 0.089 |
| S52A | 1.55 |

| Variant | THAP1 transcriptional activity |
| --- | --- |
| S52M | 0.633 |
| S52D | 0.109 |
| I116G | 1.82 |
| I116W | 0.472 |
| Y50R | 0.09 |
| Y50S | 0.268 |
| P122C | 0.319 |
| P122Y | 0.254 |
| S194C | 0.978 |
| S194L | 0.808 |
| K90Q | 2.35 |
| L100P | 1.9 |
| L100Q | 1.41 |
| V156C | 0.708 |
| V156M | 0.475 |
| D88F | 0.918 |
| D88C | 0.815 |
| Q145I | 0.448 |
| Q145Y | 0.618 |
| E98C | 0.653 |
| H87K | 1.13 |
| H87M | 2.74 |
| P108N | 2.3 |
| Q167M | 0.699 |

| Variant | THAP1 transcriptional activity |
| --- | --- |
| H185C | 0.951 |
| T142Q | 0.756 |
| V2T | 0.21 |
| A166V | 0.718 |
| P126A | 0.618 |
| K43E | 0.598 |
| K43M | 0.434 |
| K43G | 0.329 |
| F25M | 0.131 |
| F25G | 0.182 |
| D61I | 0.133 |
| H23P | 0.161 |
| A7T | 0.0906 |
| A7K | 0.186 |
| A7P | 0.0917 |
| A7R | 0.122 |
| T59F | 0.186 |
| T59M | 0.544 |
| C10M | 0.103 |
| C10T | 0.0641 |
| C10G | 0.098 |
| G9A | 0.209 |
| G9N | 0.241 |
| G9V | 0.0945 |

| Variant | THAP1 transcriptional activity |
| --- | --- |
| G9Y | 0.149 |
| D134A | 0.125 |
| D134I | 0.153 |
| D134V | 0.123 |
| E182I | 0.428 |
| E182W | 0.66 |
| Y8G | 0.241 |
| Y8F | 0.667 |
| Y8Q | 0.509 |
| Y8K | 0.356 |
| A76K | 0.428 |
| T165F | 0.262 |
| T165P | 0.196 |
| L129S | 1.2 |
| L129N | 1.4 |
| S21P | 0.0702 |
| S21A | 0.0835 |
| S21D | 0.0962 |
| I208C | 1.06 |
| I208Q | 0.835 |
| D15S | 0.562 |
| D15V | 0.631 |
| D15H | 0.997 |
| E195H | 0.381 |

| Variant | THAP1 transcriptional activity |
| --- | --- |
| R148W | 0.179 |
| R13F | 0.14 |
| L94S | 1.71 |
| L94P | 1.67 |
| K188N | 1.03 |
| K188P | 0.419 |
| C33F | 0.17 |
| C33R | 0.15 |
| C33S | 0.242 |
| C33A | 0.499 |
| V127W | 0.336 |
| C5L | 0.147 |
| E210Q | 1.15 |
| E210W | 0.686 |
| R169M | 0.388 |
| R169W | 0.138 |
| V193K | 0.694 |
| V193Y | 0.789 |
| E189T | 1.08 |
| E189A | 1.22 |
| D191A | 1.23 |
| E85L | 0.328 |
| E85D | 0.708 |
